Assay results taken from paper PMC4654411.

Molecular target: Full-length HA-tagged PTPN12 (human) (UniProt Q05209)
Test: co-IP; Hek293 cells co-transfected with HA-PTPN12 and GFP-tagged FlnAs; 500 µg lysate in NETF buffer, 6 µg anti-HA 2 h at 4 °C, protein A beads; immunoblot

Sequence of UniProt Q05209 (Q05209 whole entry): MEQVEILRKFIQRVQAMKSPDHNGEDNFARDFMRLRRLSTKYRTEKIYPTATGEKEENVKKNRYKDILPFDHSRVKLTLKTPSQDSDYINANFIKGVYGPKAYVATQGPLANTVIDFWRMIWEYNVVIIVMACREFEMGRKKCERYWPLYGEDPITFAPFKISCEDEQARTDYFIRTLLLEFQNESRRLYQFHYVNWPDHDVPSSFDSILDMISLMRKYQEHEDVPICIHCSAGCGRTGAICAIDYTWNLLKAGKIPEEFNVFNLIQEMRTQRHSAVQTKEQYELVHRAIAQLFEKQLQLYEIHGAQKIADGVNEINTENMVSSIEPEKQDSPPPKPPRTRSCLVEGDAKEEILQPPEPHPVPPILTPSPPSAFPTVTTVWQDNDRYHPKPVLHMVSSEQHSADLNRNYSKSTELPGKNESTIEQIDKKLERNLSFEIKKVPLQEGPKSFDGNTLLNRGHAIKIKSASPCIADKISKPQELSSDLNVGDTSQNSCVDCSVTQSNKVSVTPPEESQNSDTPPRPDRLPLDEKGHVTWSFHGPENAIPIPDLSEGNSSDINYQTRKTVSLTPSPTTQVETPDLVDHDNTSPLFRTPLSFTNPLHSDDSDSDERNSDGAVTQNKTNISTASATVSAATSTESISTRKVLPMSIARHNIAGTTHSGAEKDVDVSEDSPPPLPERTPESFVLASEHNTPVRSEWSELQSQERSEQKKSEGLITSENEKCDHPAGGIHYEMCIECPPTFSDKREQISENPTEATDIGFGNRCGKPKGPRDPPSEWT

reduction of the FlnA co-immunoprecipitated with respect to FlnA-WT [%] | Substance
> 60 | GFP-tagged-FlnA-G288R, P21333 1-2647
> 60 | GFP-tagged-FlnA-P637Q, P21333 1-2647
